The source of these data is paper PMC5807507, “Crystal structures of a bacterial dipeptidyl peptidase IV reveal a novel substrate recognition mechanism distinct from that of mammalian orthologues” (Scientific Reports, 2018).

Substrate in data set [1]: Cc1cc(=O)oc2cc(NC(=O)[C@@H]3CCCN3C(=O)CN)ccc12
The data set can be described thus: fluorescence of released MCA; Michaelis-Menten nonlinear fit. To be noted: […] substrate, […] sodium phosphate pH […] EDTA, […] Tween […] K, […] min. The class given is biochemical, Homo sapiens. An excerpt:
fluorescence of released MCA; Michaelis-Menten nonlinear fit on Human DPP IV

Substrate in data set [2]: Cc1cc(=O)oc2cc(NC(=O)[C@@H]3CCCN3C(=O)CN)ccc12
Described as above. As to conditions: […] substrate, […] sodium phosphate pH […] EDTA, […] Tween […] K, […] min. It counts as biochemical, Pseudoxanthomonas mexicana. An excerpt:
fluorescence of released MCA; Michaelis-Menten nonlinear fit on PmDAP IV

B1: Human DPP IV (Homo sapiens) (protein)
chain: SRKTYTLTDYLKNTYRLKLYSLRWISDHEYLYKQENNILVFNAEYGNSSVFLENSTFDEFGHSINDYSISPDGQFILLEYNYVKQWRHSYTASYDIYDLNKRQLITEERIPNNTQWVTWSPVGHKLAYVWNNDIYVKIEPNLPSYRITWTGKEDIIYNGITDWVYEEEVFSAYSALWWSPNGTFLAYAQFNDTEVPLIEYSFYSDESLQYPKTVRVPYPKAGAVNPTVKFFVVNTDSLSSVTNATSIQITAPASMLIGDHYLCDVTWATQERISLQWLRRIQNYSVMDICDYDESSGRWNCLVARQHIEMSTTGWVGRFRPSEPHFTLDGNSFYKIISNEEGYRHICYFQIDKKDCTFITKGTWEVIGIEALTSDYLYYISNEYKGMPGGRNLYKIQLSDYTKVTCLSCELNPERCQYYSVSFSKEAKYYQLRCSGPGLPLYTLHSSVNDKGLRVLEDNSALDKMLQNVQMPSKKLDFIILNETKFWYQMILPPHFDKSKKYPLLLDVYAGPCSQKADTVFRLNWATYLASTENIIVASFDGRGSGYQGDKIMHAINRRLGTFEVEDQIEAARQFSKMGFVDNKRIAIWGWSYGGYVTSMVLGSGSGVFKCGIAVAPVSRWEYYDSVYTERYMGLPTPEDNLDHYRNSTVMSRAENFKQVEYLLIHGTADDNVHFQQSAQISKALVDVGVDFQAMWYTDEDHGIASSTAHQHIYTHMSHFIKQCFSLP
notes: homodimer
A word on the Km: it is the concentration of substrate that gives half-maximal velocity. For orientation: kcat means the maximal rate divided by the concentration of active sites. As a reminder, the kcat/Km is the second-order rate constant that governs catalysis at low substrate concentration. As for B1, in data set [1], the Michaelis constant (Km) is recorded as 37.1 ± 1.6 µM, the kcat was determined as 35.3 ± 1 s⁻¹ and the kcat/Km amounted to 952000 ± 13000 M⁻¹ s⁻¹.

B2: PmDAP IV (Pseudoxanthomonas mexicana) (protein)
chain: AEKLTLEAITGSAPLSGPTLTKPQIAPDGSRVTFLRGKDRDRNRLDLWEYDIASGQTRLLVDSSVVLPGEEVLSDEEKARRERQRIAALSGIVDYQWSPDGKALLFPLGGELYFYDLTKSGRDAVRKLTNGGGFATDPKISPKGGFVSFIRDRNLWAIDLASGKEVQLTRDGSDTIGNGVAEFVADEEMDRHTGYWWAPDDAAIAFARIDETPVPVQKRYEVYPDRTEVVEQRYPAAGDHNVRVQLGVIAPKTGARPRWIDLGKDPDIYLARVDWRDPQRLTFQRQSRDQKKIELIETTLTNGTQRTLVTETSTTWVPLHNDLRFLKDGRFLWSSERSGFEHLYVASEDGSTLTALTQGEWVVDSLLAIDEAAGLAYVSGTRDGATEAHVYAVPLSGGEPRRLTQAPGMHAATFARNASVFVDSWSSDTTLPQIELFKADGTKLATLLVNDVSDATHPYAKYRAAHQPTAYGTLTAADGTTPLHYSLIKPAGFDPKKQYPVVVFVYGGPAAQTVTRAWPGRSDSFFNQYLAQQGYVVFTLDNRGTPRRGAAFGGALYGKQGTVEVDDQLRGIEWLKSQAFVDPARIGVYGWSNGGYMTLMLLAKHDEAYACGVAGAPVTDWALYDTHYTERYMDLPKANEAGYREASVFTHVDGIGAGKLLLIHGMADDNVLFTNSTKLMSELQKRGTPFELMTYPGAKHGLRGSDLLHRYRLTEDFFARCLKP
notes: M12I lies in the removed signal; no tag; 723 residues, 82-kDa; homodimer; crystal model Ala22-Pro745
With B2, in data set [2], the Michaelis-Menten constant (Km) is reported as 19.4 ± 0.8 µM, the turnover number (kcat) amounted to 19.2 ± 0.4 s⁻¹ and the kcat/Km amounted to 989000 ± 35000 M⁻¹ s⁻¹.
